Test results published in patent publication US20240116985A1, “STAPLED PEPTIDES AND METHODS THEREOF” (priority 2020, published 2024).
Starred links: 1 amine or outer side, 2 acyl side, 3 side chain; linkers in the order of their positions; H or OH if unused. Positions of bridges follow the written chain, without caps; N, C: chain ends. Non-standard residues stand in square brackets, D forms with d. Primed or numbered codes have the meaning given here. PyrS2″ = (S)-3-amino-1-((pent-4-en-1-yloxy)carbonyl)pyrrolidine-3-carboxylic acid (stapling residue), C=CCCCOC(=O)N1CC[C@@](N[*:1])(C(=O)[*:2])C1; B5(18) = 2,2-bis(4-pentenyl)glycine (2-amino-2-(pent-4-en-1-yl)hept-6-enoic acid), stitching residue, C=CCCCC(CCCC=C)(N[*:1])C(=O)[*:2]; B5(4) = 2,2-bis(4-pentenyl)glycine = 2-amino-2-(pent-4-en-1-yl)hept-6-enoic acid (stitching residue), C=CCCCC(CCCC=C)(N[*:1])C(=O)[*:2]; B5(5) = 2,2-bis(4-pentenyl)glycine, 2-amino-2-(pent-4-en-1-yl)hept-6-enoic acid (stitching residue), C=CCCCC(CCCC=C)(N[*:1])C(=O)[*:2]; TfeGA = (S)-2-amino-3-((carboxymethyl)(2,2,2-trifluoroethyl)amino)propanoic acid, O=C([C@H](CN(CC(=O)[*:3])CC(F)(F)F)N[*:1])[*:2]; B5(31) = 2-amino-2-(pent-4-en-1-yl)hept-6-enoic acid (bis-pentenylglycine, stitching residue), C=CCCCC(CCCC=C)(N[*:1])C(=O)[*:2]; B5(3) = 2,2-bis(4-pentenyl)glycine (stitching residue), C=CCCCC(CCCC=C)(N[*:1])C(=O)[*:2]; B5 = 2-amino-2-(pent-4-en-1-yl)hept-6-enoic acid, C=CCCCC(CCCC=C)(N[*:1])C(=O)[*:2]; Phe(3-COOH) = N[C@@H](Cc1cccc(C(=O)O)c1)C(=O)O; 2F3MeF = Cc1cccc(C[C@H](N[*:1])C(=O)[*:2])c1F; Phe(2-CF3) = N[C@@H](Cc1ccccc1C(F)(F)F)C(=O)O; Bip = N[C@@H](Cc1ccc(-c2ccccc2)cc1)C(=O)O; Dip = N[C@H](C(=O)O)C(c1ccccc1)c1ccccc1; Phe(2-Cl) = N[C@@H](Cc1ccccc1Cl)C(=O)O; Met(O2) = CS(=O)(=O)CC[C@H](N)C(=O)O; Bta = N[C@@H](Cc1csc2ccccc12)C(=O)O; Lys(iPr) = CC(C)NCCCC[C@H](N)C(=O)O; αAllylPro = C=CC[C@@]1(C(=O)O)CCCN1; tBuAla = CC(C)(C)C[C@H](N)C(=O)O; 3Thi = N[C@@H](Cc1ccsc1)C(=O)O; Cha = N[C@@H](CC1CCCCC1)C(=O)O; S8 = C=CCCCCCC[C@](C)(N)C(=O)O; Phg = N[C@H](C(=O)O)c1ccccc1; hSer = N[C@@H](CCO)C(=O)O

What was measured:
[1] = molecular target: full-length beta-Catenin (Uniprot ID P35222) (Homo sapiens (Human)) (UniProt P35222); experiment: fluorescence polarization competition; 10 nM full-length beta-catenin, 10 nM 5FAM-TCF4(10-53) as competitor probe
Target sequence in this assay (P35222 2-781 limits assumed): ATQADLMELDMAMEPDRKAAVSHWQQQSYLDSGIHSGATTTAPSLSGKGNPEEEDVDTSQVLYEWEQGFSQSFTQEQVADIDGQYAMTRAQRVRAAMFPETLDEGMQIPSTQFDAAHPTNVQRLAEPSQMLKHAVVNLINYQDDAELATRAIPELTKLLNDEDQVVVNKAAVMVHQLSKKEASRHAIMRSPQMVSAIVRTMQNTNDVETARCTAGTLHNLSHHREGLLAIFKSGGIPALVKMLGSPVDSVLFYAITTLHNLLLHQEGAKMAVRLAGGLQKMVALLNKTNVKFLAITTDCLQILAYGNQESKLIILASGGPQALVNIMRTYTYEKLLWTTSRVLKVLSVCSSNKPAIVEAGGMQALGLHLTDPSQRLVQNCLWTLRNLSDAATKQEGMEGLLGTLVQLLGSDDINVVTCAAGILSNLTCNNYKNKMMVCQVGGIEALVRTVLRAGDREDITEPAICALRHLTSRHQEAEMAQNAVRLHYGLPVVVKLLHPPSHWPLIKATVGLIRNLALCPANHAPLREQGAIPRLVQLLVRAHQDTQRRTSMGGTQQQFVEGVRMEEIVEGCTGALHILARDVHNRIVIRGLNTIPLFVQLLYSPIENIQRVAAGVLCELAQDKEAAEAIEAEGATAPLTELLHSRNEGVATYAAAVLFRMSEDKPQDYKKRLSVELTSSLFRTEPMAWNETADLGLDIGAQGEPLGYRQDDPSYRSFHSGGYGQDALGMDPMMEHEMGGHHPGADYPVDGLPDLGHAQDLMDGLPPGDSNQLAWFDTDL

[2] = molecular target: full-length beta-Catenin (Uniprot ID P35222) (Homo sapiens (Human)) (UniProt P35222); experiment: fluorescence polarization competition; peptide titrated against full-length beta-catenin + 5FAM-TCF4(10-53)
Target sequence in this assay (P35222 whole entry, the tested form may be a part): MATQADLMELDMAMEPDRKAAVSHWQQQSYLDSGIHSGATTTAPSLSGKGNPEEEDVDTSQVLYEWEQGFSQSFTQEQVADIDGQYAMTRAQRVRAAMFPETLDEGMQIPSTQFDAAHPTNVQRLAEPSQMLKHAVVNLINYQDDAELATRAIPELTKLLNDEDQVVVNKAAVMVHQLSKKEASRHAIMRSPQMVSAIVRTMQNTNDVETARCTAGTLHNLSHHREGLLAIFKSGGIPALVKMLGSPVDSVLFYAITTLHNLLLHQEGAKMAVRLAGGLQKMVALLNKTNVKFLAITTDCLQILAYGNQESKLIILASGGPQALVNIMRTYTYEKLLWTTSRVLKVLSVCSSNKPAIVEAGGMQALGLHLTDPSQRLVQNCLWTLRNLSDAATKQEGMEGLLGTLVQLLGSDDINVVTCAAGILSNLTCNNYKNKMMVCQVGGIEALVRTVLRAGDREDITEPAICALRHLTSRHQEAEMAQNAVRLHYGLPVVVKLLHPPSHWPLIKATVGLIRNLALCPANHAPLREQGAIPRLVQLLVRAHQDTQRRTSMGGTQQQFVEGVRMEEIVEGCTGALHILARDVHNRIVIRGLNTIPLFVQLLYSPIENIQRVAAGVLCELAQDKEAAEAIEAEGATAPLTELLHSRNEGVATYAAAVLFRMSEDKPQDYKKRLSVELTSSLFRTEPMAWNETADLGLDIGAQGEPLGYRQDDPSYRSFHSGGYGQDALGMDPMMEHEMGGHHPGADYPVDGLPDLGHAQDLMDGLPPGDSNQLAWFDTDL

[3] = molecular target: full-length beta-Catenin (Uniprot ID P35222) (Homo sapiens (Human)) (UniProt P35222); experiment: fluorescence polarization competition; full-length beta-catenin with 5FAM-labeled TCF4 residues 10-53 probe as competitor
Target sequence in this assay (P35222 whole entry, the tested form may be a part): as above

[4] = molecular target: full-length beta-Catenin (Uniprot ID P35222) (Homo sapiens (Human)) (UniProt P35222); experiment: fluorescence polarization competition; 10 nM full-length beta-catenin + 10 nM 5FAM-TCF4(10-53) probe; peptide titrated 10 uM to 5 nM
Target sequence in this assay (P35222 2-781 limits assumed): as the sequence (P35222 2-781 limits assumed) above

[5] = molecular target: full-length beta-Catenin (Uniprot ID P35222) (Homo sapiens (Human)) (UniProt P35222); experiment: fluorescence polarization competition; full-length beta-catenin + 5FAM-TCF4(10-53) probe; peptide titrated
Target sequence in this assay (P35222 2-781 limits assumed): as above

[6] = molecular target: full-length beta-Catenin (Uniprot ID P35222) (Homo sapiens (Human)) (UniProt P35222); experiment: fluorescence polarization competition; 10 nM full-length beta-catenin + 10 nM 5FAM-TCF4(10-53) probe
Target sequence in this assay (P35222 whole entry, the tested form may be a part): as the sequence (P35222 whole entry, the tested form may be a part) above

[7] = molecular target: full-length beta-Catenin (Uniprot ID P35222) (Homo sapiens (Human)) (UniProt P35222); experiment: fluorescence polarization competition; displaces 5FAM-TCF4(10-53) from full-length beta-catenin
Target sequence in this assay (P35222 2-781 limits assumed): as the sequence (P35222 2-781 limits assumed) above

Bcat-Halo = Bcat-Halo (UniProt P35222); experiment: NanoBRET Abs IC50, Bcat-Halo/TCF4-Luc in HEK293 cells
Sequence of Bcat-Halo (P35222 whole entry): as the sequence (P35222 whole entry, the tested form may be a part) above

Row | Binder | IC50 [1] [nM] | IC50 [2] [nM] | EC50 [3] [nM] | further results
1 | Ac-[αAllylPro]DI[B5]DEAAFN[S8][3Thi][Bta]-NH2 (staple 1-4, 4-11) [I-720] | – | 75 | 75 | –
2 | Ac-[αAllylPro]N[Cha][B5(4)]DQHAFN[PyrS2″]F[Bta]A-NH2 (staple 1-4, 4-11) [I-2069] | 256 | – | – | –
3 | Ac-[αAllylPro]DL[B5]DEAAFN[S8][3Thi][Bta]-NH2 (staple 1-4, 4-11) [I-717] | – | 39 | 39 | –
4 | Ac-[αAllylPro]D[tBuAla][B5(4)]D[Phe(3-COOH)]TAFL[PyrS2″][Phe(2-CF3)][Bta]A-NH2 (staple 1-4, 4-11) [I-2060] | 56 | – | – | –
5 | Ac-[αAllylPro]N[Cha][B5(4)]DQQAFN[PyrS2″]F[Bta]A-NH2 (staple 1-4, 4-11) [I-2070] | 190 | – | – | –
6 | Ac-[αAllylPro]D[tBuAla][B5(4)]D[Phe(3-COOH)]QAFL[PyrS2″][2F3MeF][Bta]A-NH2 (staple 1-4, 4-11) [I-2057] | 17 | – | – | –
7 | Ac-[αAllylPro]N[Cha][B5(5)]DQHAFN[PyrS2″]F[Bta][hSer]-NH2 (staple 1-4, 4-11) [I-2066] | 357 | – | – | –
8 | Ac-[αAllylPro]D[tBuAla][B5(3)]N[Phe(3-COOH)]AAFT[PyrS2″][3Thi][Bta]Q-NH2 (staple 1-4, 4-11) [I-2336] | – | – | – | IC50 [4]: 19 nM
9 | Ac-[αAllylPro]N[Cha][B5(4)]DQQAFN[PyrS2″]F[Bta][hSer]-NH2 (staple 1-4, 4-11) [I-2067] | 180 | – | – | –
10 | Ac-[αAllylPro]D[tBuAla][B5(4)]D[Phe(3-COOH)]QAFV[PyrS2″][3Thi][Bta]A-NH2 (staple 1-4, 4-11) [I-2054] | 5 | – | – | –
11 | Ac-[αAllylPro]DI[B5]DEAA[Cha]Q[S8]F[Bta]Q-NH2 (staple 1-4, 4-11) [I-722] | – | 1130 | 1130 | –
12 | Ac-[αAllylPro]DI[B5(3)]DEAAFN[S8]F[Bta]-NH2 (staple 1-4, 4-11) [I-714] | – | 131 | 131 | –
13 | Ac-[αAllylPro]D[tBuAla][B5(18)]D[TfeGA]KAFN[PyrS2″][Phe(2-Cl)][Bta]Q-NH2 (staple 1-4, 4-11) [I-1011] | – | – | – | IC50 [6]: 5 nM; EC50 [7]: 5 nM; IC50 (Bcat-Halo): 20800 nM
14 | Ac-[αAllylPro]D[tBuAla][B5(18)]DDAAFS[PyrS2″][Phe(2-Cl)][Bta]Q-NH2 (staple 1-4, 4-11) [I-1017] | – | – | – | IC50 [6]: 5 nM; EC50 [7]: 5 nM; IC50 (Bcat-Halo): 8900 nM
15 | Ac-[αAllylPro]D[tBuAla][B5(31)]NTAAFT[PyrS2″][3Thi][Bta]H-NH2 (staple 1-4, 4-11) [I-2337] | – | – | – | IC50 [4]: 311 nM
16 | Ac-[αAllylPro]DI[B5]DEAAFN[S8][3Thi][Bta]-NH2 (staple 1-4, 4-11) [I-721] | – | 46 | 46 | –
17 | Ac-[αAllylPro]D[Cha][B5(3)]D[TfeGA]AAFN[S8][3Thi][Bta]H-NH2 (staple 1-4, 4-11) [I-709] | – | 54 | – | EC50 [5]: 54 nM
18 | Ac-[αAllylPro]D[tBuAla][B5(18)]DNAAFT[PyrS2″][Phe(2-Cl)][Bta]S-NH2 (staple 1-4, 4-11) [I-1016] | – | – | – | IC50 [6]: 8 nM; EC50 [7]: 8 nM; IC50 (Bcat-Halo): 21400 nM
19 | Ac-[αAllylPro]DI[B5]DEAA[Dip]Q[S8]F[Bta]Q-NH2 (staple 1-4, 4-11) [I-725] | – | 5000 | 5000 | –

Second part, led by results:

Row | IC50 [1] [nM] | IC50 [2] [nM] | EC50 [3] [nM] | Binder | further results
20 | 144 | – | – | Ac-[αAllylPro]N[Cha][B5(4)]DQ[Lys(iPr)]AFN[PyrS2″]F[Bta]A-NH2 (staple 1-4, 4-11) [I-2065] | –
21 | – | 70 | 70 | Ac-[αAllylPro]D[tBuAla][B5(3)]DEAAFN[S8]F[Bta]-NH2 (staple 1-4, 4-11) [I-713] | –
22 | 12 | – | – | Ac-[αAllylPro]D[tBuAla][B5(3)]D[Phe(3-COOH)]QAFF[PyrS2″][3Thi][Bta]A-NH2 (staple 1-4, 4-11) [I-2052] | –
23 | 38 | – | – | Ac-[αAllylPro]D[tBuAla][B5(4)]D[Phe(3-COOH)]SAFL[PyrS2″][Phe(2-CF3)][Bta]A-NH2 (staple 1-4, 4-11) [I-2059] | –
24 | 10 | – | – | Ac-[αAllylPro]D[tBuAla][B5(4)]D[Phe(3-COOH)]NAFL[PyrS2″][Phe(2-CF3)][Bta]A-NH2 (staple 1-4, 4-11) [I-2058] | –
25 | – | 82 | 82 | Ac-[αAllylPro]D[tBuAla][B5]DEAAFN[S8][3Thi][Bta]-NH2 (staple 1-4, 4-11) [I-718] | –
26 | 16 | – | – | Ac-[αAllylPro]D[tBuAla][B5(4)]D[Phe(3-COOH)]QAFL[PyrS2″][3Thi][Bta]L-NH2 (staple 1-4, 4-11) [I-2056] | –
27 | – | 58 | – | Ac-[αAllylPro]D[tBuAla][B5(3)]D[TfeGA]AAFN[S8][3Thi][Bta]H-NH2 (staple 1-4, 4-11) [I-705] | EC50 [5]: 58 nM
28 | – | 91 | 91 | Ac-[αAllylPro]DL[B5]DEAAFN[S8][3Thi][Bta]-NH2 (staple 1-4, 4-11) [I-716] | –
29 | – | 60.5 | 60.5 | Ac-[αAllylPro]DI[B5(3)]DEAAFN[S8]F[Bta]-NH2 (staple 1-4, 4-11) [I-715] | –
30 | 41 | – | – | Ac-[αAllylPro]D[tBuAla][B5(4)]D[Phe(3-COOH)]AAFL[PyrS2″][Phe(2-Cl)][Bta][Met(O2)]-NH2 (staple 1-4, 4-11) [I-2062] | –
31 | – | 3830 | 3830 | Ac-[αAllylPro]DI[B5]DEAA[Bip]Q[S8]F[Bta]Q-NH2 (staple 1-4, 4-11) [I-723] | –
32 | – | 38 | 38 | Ac-[αAllylPro]D[tBuAla][B5]DEAAFN[S8][3Thi][Bta]-NH2 (staple 1-4, 4-11) [I-719] | –
33 | 56 | – | – | Ac-[αAllylPro]D[tBuAla][B5(4)]D[Phe(3-COOH)]AAFL[PyrS2″][Phe(2-CF3)][Bta][Met(O2)]-NH2 (staple 1-4, 4-11) [I-2063] | –
34 | 16 | – | – | Ac-[αAllylPro]D[tBuAla][B5(3)]D[Phe(3-COOH)]TAFL[PyrS2″][3Thi][Bta]A-NH2 (staple 1-4, 4-11) [I-2051] | –
35 | – | 92 | 92 | Ac-[αAllylPro]D[tBuAla][B5(3)]DEAAFN[S8]F[Bta]-NH2 (staple 1-4, 4-11) [I-712] | –
36 | – | 5000 | 5000 | Ac-[αAllylPro]DI[B5]DEAA[Phg]Q[S8]F[Bta]Q-NH2 (staple 1-4, 4-11) [I-726] | –
37 | 338 | – | – | Ac-[αAllylPro]N[Cha][B5(4)]DQ[Lys(iPr)]AFN[PyrS2″]F[Bta]F-NH2 (staple 1-4, 4-11) [I-2068] | –
